The target of data set [1] is T1, CocE (Rhodococcus sp., UniProt Q9L9D7).
T1 construct: generating a full-length CocE gene encoding the T172R mutation; His6 (C); made in house; host or cells: E. coli (pET-22b(+))
In words: Inhibition of CocE (cleavage of 4-nitrophenyl acetate). In kind it is biochemical, Rhodococcus sp. MB 1. How it is done:
Benzoic acid prevented 37° C.-induced formation of high molecular weight CocE aggregates (0.1 mg/ml enzyme concentrations) (see, e.g., FIG. 35). Benzoic acid (uM quantities) stabilized 37° C.-induced activity loss (see, e.g., FIG. 36), although the mechanism of this stabilization is complicated due to substrate inhibition at higher concentrations.
CocE catalyzes the cleavage of 4-nitrophenyl acetate (4NPA) to 4-nitrophenol (4NP) and acetate. The cleavage reaction was monitored by observation of product formation at 400 nm. Both 4NP and 4NPA (mM range) prevented 37° C.-induced formation of high molecular weight CocE aggregates (0.1 mg/ml enzyme concentrations).

The target in data set [2] is T1, CocE. Nature of the data set: Stabilization against 37° C.-induced formation of high molecular weight CocE aggregates (gel). In kind it is physicochemical, Rhodococcus sp. MB 1. To be noted: 0.1 mg/ml enzyme, mM range. As for the experimental part:
Plasmids containing the mutations were transformed into E. coli BL21 cells and IPTG-induced enzyme was purified on Ni-Agarose. Expressed proteins were then tested for enzymatic activity and for thermostability at 37° C. Enzyme activity was measured using the spectrophotometric assay as described in Example 1. Thermostability was also tested via the spectrophotometric assay by pre-incubation of both wild-type and mutants at 37° C. for various times. Additionally, the nature of the thermo-instability of both the wild-type and T172R mutant was analyzed by polyacrylamide gel electrophoresis under denaturing and non-denaturing conditions. Briefly, mutant and wild-type enzyme at 0.1 mg/ml were incubated at 37° C. for various time-points, cooled to 4° C., mixed with SDS-loading dye containing-mercaptoethanol and run on 10% SDS-PAGE gels (denaturing conditions) or run on native 10% polyacrylamide gels (non-denaturing conditions) at 4° C. Gels were fixed with 10% methanol, 7% acetic acid for 30 minutes, and then stained with Sypro-Ruby protein gel stain (Molecular Probes, Invitrogen) for 3 hours. Protein staining was visualized under UV-light using an AlphaImager™ 3400 (Alpha Innotech). Finally, the exact melting temperature of both the wild-type and T172R mutant were determined by circular dichroism using a JASCO-810 spectropolarimeter driven by a JASCO V500/FP-750 analysis program for Windows. The CD spectra were measured in millidegrees and normalized against PBS buffer.
(§1) Cocaine esterase (CocE) cleaves cocaine to produce Benzoic acid and Ecgonine methyl ester. Briefly, alternative substrates and inhibitors of cocaine, as well as compounds able to thermostabilize the enzyme, were investigated generally by substituting amide and thiol analogues at the reactive ester bond, or removing the bond (for inhibitors), substituting benzoyl analogues in place of the benzoic acid leaving group, and/or removing or altering the methyl-ester group on the ecgonine portion of the molecule. As discussed below, it was determined that some substrates, products, and inhibitors stabilized thermal denaturation of wild type CocE, as well as prevented thermally-induced aggregation in gel electrophoresis.
(§2) Cocaine is the natural substrate of Cocaine esterase (CocE). Cocaine cleavage was monitored by a drop in absorbance at 240 nm. Cocaine (mM range) prevented 37° C.-induced formation of high molecular weight CocE aggregates (0.1 mg/ml enzyme concentrations) (see, e.g., FIG. 33). Cocaine (uM quantities) stabilized 37° C.-induced activity loss (see, e.g., FIG. 34), although the mechanism of this stabilization is complicated due to substrate inhibition at higher concentrations.

In data set [3] the target is T1, CocE. In words: Stabilization of 37° C.-induced CocE activity loss. In kind it is biochemical, Rhodococcus sp. MB 1. As to conditions: uM quantities.
From the text: as §1, §2

A short description of data set [4]: Gel filtration of samples incubated at 37° C. In kind it is physicochemical. As for the experimental part:
Higher Km values on day 3 were due to reuse of old cocaine.
Protection from aggregation of thermal stable CocE mutants was assessed using size exclusion chromatography. Briefly, enzymes were preincubated at 37° C. for 0 minutes or 60 minutes and resolved by size exclusion chromatography.
Background: Size exclusion chromatography separates by hydrodynamic size, large species first.

Data set [5] in a line: Cocaine spectrophotometric assay (240 nm), Michaelis-Menten kinetics.

The results in this text go back to US9200265B2, “Anti-cocaine compositions and treatment” (priority 2006, dated 2015).

In the case of `O=C(O)c1ccccc1` [Benzoic acid], the Ki (usually the equilibrium dissociation constant of an inhibitor or competing ligand from its target) at CocE [1] was 310 µM. At CocE [2], the “37° C.-induced formation of high molecular weight CocE aggregates” value is “prevented”. Also, on CocE [3], the “37° C.-induced activity loss” value is reported as “stabilized”.

B1: N197K (protein)
chain: MVDGNYSVASNVMVPMRDGVRLAVDLYRPDADGPVPVLLVRNPYDKFDVFAWSTQSTNWLEFVRDGYAVVIQDTRGLFASEGEFVPHVDDEADAEDTLSWILEQAWCDGNVGMFGVSYLGVTQWQAAVSGVGGLKAIAPSMASADLYRAPWYGPGGALSVEALLGWSALIGTGLITSRSDARPEDAADFVQLAAILKDVAGAASVTPLAEQPLLGRLIPWVIDQVVDHPDNDESWQSISLFERLGGLATPALITAGWYDGFVGESLRTFVAVKDNADARLVVGPWSHSNLTGRNADRKFGIAATYPIQEATTMHKAFFDRHLRGETDALAGVPKVRLFVMGIDEWRDETDWPLPDTAYTPFYLGGSGAANTSTGGGTLSTSISGTESADTYLYDPADPVPSLGGTLLFHNGDNGPADQRPIHDRDDVLCYSTEVLTDPVEVTGTVSARLFVSSSAVDTDFTAKLVDVFPDGRAIALCDGIVRMRYRETLVNPTLIEAGEIYEVAIDMLATSNVFLPGHRIMVQVSSSNFPKYDRNSNTGGVIAREQLEEMCTAVNRIHRGPEHPSHIVLPIIKRLEHHHHHH
modifications: Mutant CocE polypeptide
For B1, the gel filtration result in data set [4] is “formation of aggregates”. Besides, the Km (usually the substrate concentration at which the rate is half of its maximum) in data set [5] (Day 0, (0) at 37° C.) was found to be 34.8 µM; in data set [5] (Day 0, (60) at 37° C.), 24.2 µM; in data set [5] (Day 3 repeat, (0), old cocaine reused), 102 µM; in data set [5] (Day 3 repeat, (60), old cocaine reused), 114 µM. Also, the “stability after 1 hour at 37° C.” value in data set [5] (day 0, preliminary) is given as “good stability”.
